B1: NRC3_wobSeed42_DR1_G9T_o1 (dsDNA)
DNA 1: GCTATACATGGTCAAAGGCCAGAGTACGAATGTCGAGCGATTGACAGCGTAGAATGAAGG
DNA 2: CCTTCATTCTACGCTGTCAATCGCTCGACATTCGTACTCTGGCCTTTGACCATGTATAGC
B2: NRC3_random_hg19_407_o1 (dsDNA)
DNA 1: GCGAGACATGAGATTTGGTTCTAGCTACACTCTTCAGCGATTGACAGCGTAGAATGAAGG
DNA 2: CCTTCATTCTACGCTGTCAATCGCTGAAGAGTGTAGCTAGAACCAAATCTCATGTCTCGC
B3: NRC3_random_hg19_98_o1 (dsDNA)
DNA 1: GCGCCAGGCTGGTCTCGACCTCCTGACTTTGTGATCGCGATTGACAGCGTAGAATGAAGG
DNA 2: CCTTCATTCTACGCTGTCAATCGCGATCACAAAGTCAGGAGGTCGAGACCAGCCTGGCGC
B4: NRC3_random_hg19_288_o1 (dsDNA)
DNA 1: GCCCTGGTTCAAGCGATTCTCCTGCCTCAGCCTCCTGCGATTGACAGCGTAGAATGAAGG
DNA 2: CCTTCATTCTACGCTGTCAATCGCAGGAGGCTGAGGCAGGAGAATCGCTTGAACCAGGGC
B5: NRC3_random_hg19_259_o1 (dsDNA)
DNA 1: GCCCTGAGTCAGTAGAACCAGCTGAGAGATTGGATTGCGATTGACAGCGTAGAATGAAGG
DNA 2: CCTTCATTCTACGCTGTCAATCGCAATCCAATCTCTCAGCTGGTTCTACTGACTCAGGGC
B6: NRC3_random_hg19_82_o1 (dsDNA)
DNA 1: GCCATACAGACTCTAGTCATTTCAAATGTTCTTGCTGCGATTGACAGCGTAGAATGAAGG
DNA 2: CCTTCATTCTACGCTGTCAATCGCAGCAAGAACATTTGAAATGACTAGAGTCTGTATGGC
B7: NRC3_random_hg19_26_o1 (dsDNA)
DNA 1: GCACTCAATACACCAAAGCACATCCTCATCAGACTCGCGATTGACAGCGTAGAATGAAGG
DNA 2: CCTTCATTCTACGCTGTCAATCGCGAGTCTGATGAGGATGTGCTTTGGTGTATTGAGTGC
B8: NRC3_random_hg19_446_o1 (dsDNA)
DNA 1: GCACTGAACAACCTGATCCTGAATGACTACAGGGTAGCGATTGACAGCGTAGAATGAAGG
DNA 2: CCTTCATTCTACGCTGTCAATCGCTACCCTGTAGTCATTCAGGATCAGGTTGTTCAGTGC
B9: NRC3_wobSeed120_DR4_G20C_o1 (dsDNA)
DNA 1: GCCCGAGTAGGTTACGAGGCGGCATTCAGTGCGAATGCGATTGACAGCGTAGAATGAAGG
DNA 2: CCTTCATTCTACGCTGTCAATCGCATTCGCACTGAATGCCGCCTCGTAACCTACTCGGGC
B10: NRC3_random_hg19_78_o1 (dsDNA)
DNA 1: GCTATGACTGGTTACACTGGAAACCTAGAATGAACAGCGATTGACAGCGTAGAATGAAGG
DNA 2: CCTTCATTCTACGCTGTCAATCGCTGTTCATTCTAGGTTTCCAGTGTAACCAGTCATAGC
B11: NRC3_random_hg19_8_o1 (dsDNA)
DNA 1: GCGCTGAAACTGGATCCCTTCCTTACACCTTACACAGCGATTGACAGCGTAGAATGAAGG
DNA 2: CCTTCATTCTACGCTGTCAATCGCTGTGTAAGGTGTAAGGAAGGGATCCAGTTTCAGCGC
B12: NRC3_random_hg19_242_o1 (dsDNA)
DNA 1: GCCAGCAGAGAACCCAGTGGAACATGAGCCTATACAGCGATTGACAGCGTAGAATGAAGG
DNA 2: CCTTCATTCTACGCTGTCAATCGCTGTATAGGCTCATGTTCCACTGGGTTCTCTGCTGGC
B13: NRC3_wobSeed112_DR4_G11C_o1 (dsDNA)
DNA 1: GCTAGCCTAGCTCAGATCGGGCCAGTATACGCTATAGCGATTGACAGCGTAGAATGAAGG
DNA 2: CCTTCATTCTACGCTGTCAATCGCTATAGCGTATACTGGCCCGATCTGAGCTAGGCTAGC

The target in this data set is THRa:RXRa (Homo sapiens, UniProt P10827;P19793 full;full). Put plainly: no ligand; PBM; 90 nM : 90 nM RXRa; PBS pH 7.4, 2% milk, 0.02% Triton X-100, 1 mM DTT, BSA, 0.4 mg/ml salmon testes DNA. To be noted: tags: His kept;His cleaved; copies: 1;1; label: surface-attached array probe.
Sequence of THRa:RXRa (P10827 other isoform, or with tags, fused parts or gaps, chain 1 of 2): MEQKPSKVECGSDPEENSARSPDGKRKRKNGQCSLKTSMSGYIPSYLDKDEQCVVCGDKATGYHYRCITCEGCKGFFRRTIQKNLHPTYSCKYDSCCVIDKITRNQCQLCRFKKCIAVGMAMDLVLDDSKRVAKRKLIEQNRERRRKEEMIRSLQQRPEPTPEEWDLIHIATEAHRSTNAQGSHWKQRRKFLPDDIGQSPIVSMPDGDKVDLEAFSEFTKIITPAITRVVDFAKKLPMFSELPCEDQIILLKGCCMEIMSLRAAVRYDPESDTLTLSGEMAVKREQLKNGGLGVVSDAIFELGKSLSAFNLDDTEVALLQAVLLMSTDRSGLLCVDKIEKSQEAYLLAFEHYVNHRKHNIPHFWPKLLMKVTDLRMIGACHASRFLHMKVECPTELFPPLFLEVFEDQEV
Sequence of THRa:RXRa (P19793 whole entry, chain 2 of 2): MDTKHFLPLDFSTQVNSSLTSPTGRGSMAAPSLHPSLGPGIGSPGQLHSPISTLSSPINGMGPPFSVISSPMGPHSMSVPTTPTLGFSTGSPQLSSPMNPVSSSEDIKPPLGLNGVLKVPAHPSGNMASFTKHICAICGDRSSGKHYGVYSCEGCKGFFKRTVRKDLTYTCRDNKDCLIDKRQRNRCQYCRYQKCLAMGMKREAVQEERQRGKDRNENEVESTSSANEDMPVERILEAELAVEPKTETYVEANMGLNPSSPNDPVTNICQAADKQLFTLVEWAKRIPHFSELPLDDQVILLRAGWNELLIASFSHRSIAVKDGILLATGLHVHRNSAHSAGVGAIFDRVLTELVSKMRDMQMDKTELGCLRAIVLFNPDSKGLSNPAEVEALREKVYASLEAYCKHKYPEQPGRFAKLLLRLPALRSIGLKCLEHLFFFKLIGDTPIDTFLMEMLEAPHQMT
For the molecule B1, the binding signal was 0.08 PBM z-score against 500 random probes.
Turning to B2, the binding signal is -0.37 PBM z-score against 500 random probes.
Under B3 stands -0.14 PBM z-score against 500 random probes; under B4, 0.5 PBM z-score against 500 random probes; under B5, -0.45 PBM z-score against 500 random probes.
As for B6, the figure is 0.12 PBM z-score against 500 random probes; as for B7, 0.33 PBM z-score against 500 random probes.
Turning to B8, the binding signal was 0.09 PBM z-score against 500 random probes.
Turning to B9, the binding signal is -0.27 PBM z-score against 500 random probes.
Under B10 stands 0.42 PBM z-score against 500 random probes.
On to B11, for which the binding signal was -0.12 PBM z-score against 500 random probes.
As for B12, the figure is -0.39 PBM z-score against 500 random probes; as for B13, -0.54 PBM z-score against 500 random probes.

These data come from article PMC6555819, “Comprehensive study of nuclear receptor DNA binding provides a revised framework for understanding receptor specificity”.
